Laboratory results from patent US20250002938A1 (FRANCIS CRICK INSTITUTE, published 2025).
Positions count from the first letter of the chain named. Names and notes keep the numbering of the source.

T1: AAV1(Asp590Cys) virus particle (AAV1)
T1 construct: Assembled particle of VP1, VP2 and VP3, all carrying the mutation; also called AAV1Cys; AAV1 Asp590Cys virions
T1 chain: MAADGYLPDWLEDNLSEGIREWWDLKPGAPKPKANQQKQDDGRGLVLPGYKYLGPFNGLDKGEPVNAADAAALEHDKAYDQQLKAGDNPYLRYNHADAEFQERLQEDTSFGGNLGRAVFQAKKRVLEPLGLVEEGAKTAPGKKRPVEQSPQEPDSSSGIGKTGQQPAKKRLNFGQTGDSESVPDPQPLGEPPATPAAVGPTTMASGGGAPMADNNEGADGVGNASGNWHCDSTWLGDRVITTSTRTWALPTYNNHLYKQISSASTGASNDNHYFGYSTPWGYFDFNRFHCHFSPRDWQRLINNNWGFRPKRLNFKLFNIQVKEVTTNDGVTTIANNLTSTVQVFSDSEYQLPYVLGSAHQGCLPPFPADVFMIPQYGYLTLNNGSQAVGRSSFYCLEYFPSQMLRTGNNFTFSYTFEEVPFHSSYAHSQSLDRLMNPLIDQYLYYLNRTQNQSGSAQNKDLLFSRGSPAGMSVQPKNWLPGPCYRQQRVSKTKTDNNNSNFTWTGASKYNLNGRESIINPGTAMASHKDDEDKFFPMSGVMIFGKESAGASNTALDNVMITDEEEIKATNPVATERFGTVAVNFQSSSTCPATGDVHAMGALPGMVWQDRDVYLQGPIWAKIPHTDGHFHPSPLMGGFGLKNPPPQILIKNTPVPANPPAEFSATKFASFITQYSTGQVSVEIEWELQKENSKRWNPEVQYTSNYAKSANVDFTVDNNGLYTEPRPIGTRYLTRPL

T2: PKD2 domain of AAVR, wild type (Pongo abelii (Sumatran orangutan) …, UniProt Q5RFR6 409-498)
T2 construct: also called PKD2 wild type
T2 sequence: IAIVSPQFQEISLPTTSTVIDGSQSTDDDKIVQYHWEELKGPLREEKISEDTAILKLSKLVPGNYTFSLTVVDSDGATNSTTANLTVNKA

B1: superfolder GFP fused to PKD1(Ser356Cys) (other)
chain: SAGESVQITLPKNEVQLNAYVLQEPPKGETYTYDWQLITHPRDYCGEMEGKHSQILKLSKLTPGLYEFKVIVEGQNAHGEGYVNVTVKPE
notes: also called PKD1^S356C-derived AP; adaptor protein (38.2 kDa); not shown: superfolder GFP
B2: msfGFP fused to PKD2(Ser425Cys) (other)
chain: T2 sequence with S17C
notes: also called monomeric variant of super folder GFP adaptor protein; not shown: monomeric variant of super folder GFP (msfGFP)
B3: sfGFP-PKD2(Ser425Cys) adaptor fusion protein (other)
chain: T2 sequence with S17C
notes: On the virus it forms the AAV1(Asp590Cys)<>sfGFP CAR-V; also called PKD2Cys; sfGFP-PKD2(Ser425Cys) fusion polypeptide; not shown: superfolder GFP (sfGFP)
B4: sfGFP-PKD2 fusion protein (wild type PKD2) (other)
chain: T2 sequence
notes: also called sfGFP-PKD2 adaptor protein; PKD2WT; not shown: superfolder GFP (sfGFP)
B5: PKD2(V480E) mutant (receptor)
chain: T2 sequence with V72E
notes: also called PKD2(V480E) variant of AAVR; Val480Glu mutation
B6: superfolder GFP fused to PKD2(Ser425Cys-Val480Glu) (other)
chain: T2 sequence with S17C, V72E
notes: also called sfGFP-PKD2(Ser425Cys-Val480Glu); not shown: superfolder GFP
B7: AAV1 wildtype capsid (virus particle) (other)
chain: T1 chain with C590D
notes: Assembled virus particle: 60 monomers of VP1, VP2 and VP3 at about 1:1:10; VP2 and VP3 are N-terminally shorter forms of the same entry; also called AAV1WT; AAV1 capsid

Columns and labels:
[1] = biological target: T3, AAV5(Gln697Cys) virus particle (AAV5); test: anti-VP1/2/3 immunoblot of a non-reducing gel, coupling at 10 µM adaptor
T3 construct: Assembled particle of VP1, VP2 and VP3; also called AAV5^Q697C

[2] = biological target: T1, AAV1(Asp590Cys) virus particle; test: non-reducing Coomassie SDS-PAGE, covalent coupling of the PKD2(Ser425Cys) fusion with AAV1 D590C
[3] = biological target: T1, AAV1(Asp590Cys) virus particle; test: SDS-PAGE of the mixtures, non-reducing (top, bottom left) and reducing with βME (bottom right); shows disulfide-linked adducts only
[4] = biological target: T4, AAV2 wildtype virus particle (AAV2, UniProt P03135 1-735); test: SPR; AAV2 virus amine-coupled on a CM3 chip, increasing concentrations of the fusion protein
T4 construct: Assembled particle of VP1, VP2 and VP3; The virus for SPR was commercially sourced; also called AAV2 wt

[5] = biological target: B7; test: response-concentration plot on AAV1 capsid; method not named; PKD2(V480E) mutant
[6] = biological target: T1, AAV1(Asp590Cys) virus particle; test: anti-VP1/2/3 immunoblot of a non-reducing gel, coupling at 3 µM adaptor in 1 mM TCEP
[7] = biological target: T5, AAV2(Gln589Cys) virus particle (AAV2, UniProt P03135 1-735); test: anti-VP1/2/3 immunoblot of a non-reducing gel, coupling at 5 µM adaptor
T5 construct: Assembled particle of VP1, VP2 and VP3

[8] = biological target: B4; test: SPR; AAV1 virus amine-coupled on a CM3 chip, increasing concentrations of the fusion protein
[9] = biological target: T2, PKD2 domain of AAVR, wild type; test: response-concentration plot on AAV1 capsid; method not named; PKD2 wild type

B1
binding result [1]: binds

B2
binding result [2]: binds

B3
binding result [3]: binds

B4
Kd [4]: ~6 µM

B5
Kd [5]: 6.13 µM

B6
binding result [6]: binds | binding result [7]: binds

B7
Kd [8]: ~2 µM | Kd [9]: 12.2 µM
